In US20150133524:

Target: PDH E1α subunit (pyruvate dehydrogenase E1 alpha subunit, 41 kDa) (UniProt P35486)
Sequence (P35486 30-390): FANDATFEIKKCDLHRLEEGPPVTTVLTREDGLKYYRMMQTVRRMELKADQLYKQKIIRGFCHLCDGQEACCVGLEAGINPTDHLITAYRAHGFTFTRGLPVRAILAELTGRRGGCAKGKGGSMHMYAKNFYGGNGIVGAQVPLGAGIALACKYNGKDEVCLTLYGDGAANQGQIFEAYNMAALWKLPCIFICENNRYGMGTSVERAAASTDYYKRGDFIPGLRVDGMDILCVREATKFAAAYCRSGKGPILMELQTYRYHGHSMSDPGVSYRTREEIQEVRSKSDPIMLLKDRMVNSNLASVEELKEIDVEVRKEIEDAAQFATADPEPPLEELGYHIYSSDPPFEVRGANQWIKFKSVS

Chain of human PDK1 (pyruvate dehydrogenase kinase, isoenzyme 1) (chain, as listed by the source): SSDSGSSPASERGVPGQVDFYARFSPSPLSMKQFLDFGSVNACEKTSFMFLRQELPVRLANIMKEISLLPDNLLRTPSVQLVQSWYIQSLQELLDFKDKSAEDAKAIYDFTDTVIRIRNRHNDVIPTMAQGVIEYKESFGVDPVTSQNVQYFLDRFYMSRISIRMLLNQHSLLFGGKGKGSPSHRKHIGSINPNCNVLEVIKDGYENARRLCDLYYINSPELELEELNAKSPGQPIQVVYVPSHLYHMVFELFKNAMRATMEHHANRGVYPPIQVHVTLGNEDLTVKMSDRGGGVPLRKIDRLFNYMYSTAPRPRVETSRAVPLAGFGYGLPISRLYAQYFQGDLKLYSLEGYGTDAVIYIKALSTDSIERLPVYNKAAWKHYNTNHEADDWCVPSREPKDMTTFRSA

human PDK1 (pyruvate dehydrogenase kinase, isoenzyme 1)
PDH E1α subunit phosphorylation (immunoblot after two-dimensional gel electrophoresis of lysates of Hif1a-/- MEFs with forced PDK1 expression against empty vector): This overexpression resulted in increased PDH E1α subunit phosphorylation
